Here are results for 2 compounds from publication PMC12435366, “Maleic anhydride derived diphosphines: adaptable chelators for receptor-targeted ^99mTc, ^64Cu and ^188Re radiotracers” (Chemical Science, 2025).

What is called tissue uptake is the percentage of the injected dose found per gram of tissue.

The nature of the data set: in vivo. Details: species or system mice. The note with it: male, athymic nude (Crl:NU(NCr)-Foxn1nu), mouse, iv, total radioactivity. On the procedure:
The biodistribution of [^99mTcO2(DP^An-PSMAt)2]^+ and [^99mTcO2(DP^MEP-PSMAt)2]^+ was studied using SPECT/CT imaging and ex vivo biodistribution methods. In these studies, [^99mTcO2(DP^An-PSMAt)2]^+ and [^99mTcO2(DP^MEP-PSMAt)2]^+ were used directly from kit-based formulations, without further purification, mimicking procedures used in clinical radiopharmacies and nuclear medicine departments. Mice were injected with [^99mTcO2(DP^An-PSMAt)2]^+ or [^99mTcO2(DP^MEP-PSMAt)2]^+ (4–5 MBq), containing 3 μg (2.6 nmol) of DP^An-PSMAt or 3.5 μg (2.6 nmol) of (DP^MEP-PSMAt) via the tail-vein, and culled 2 h post-injection, followed by dissection, organ/tissue weighing and counting.
The biodistribution of [^99mTcO2(DP^An-PSMAt)2]^+ and [^99mTcO2(DP^MEP-PSMAt)2]^+ was further studied in (i) male SCID/Beige mice bearing DU145-PSMA+ prostate cancer xenografts (Fig. 8) and (ii) male nude mice bearing PSMA-expressing LNCaP prostate cancer xenografts (see SI). […]
4.10 In vivo imaging and biodistribution (DU145-PSMA+ and LNCaP)
Preparation of tumour-bearing mice: All animal experiments were ethically reviewed by an Animal Welfare & Ethical Review Board at either King’s College London or Bart’s Cancer Institute and carried out in accordance with the Animals (Scientific Procedures) Act 1986 UK Home Office regulations governing animal experimentation. Subcutaneous prostate cancer xenografts were produced in SCID/beige mice (male, 7–12 weeks old) by injecting 4 × 10^6 DU145-PSMA+ or DU145 cells suspended in PBS (100 μL) on the right shoulder. Imaging and biodistribution studies were performed once a tumour had reached 5–10 mm in diameter (3–4 weeks after injection). Subcutaneous LNCaP prostate cancer xenografts were produced in athymic nude (Crl:NU(NCr)-Foxn1nu) mice (male, 6–7 weeks old) by injecting 5 × 10^6 LNCaP cells suspended in PBS:matrigel (1:1, 200 μL) on the right flank.
Biodistribution studies using 99mTc radiotracers were performed once a tumour had reached 150– 300 mm3 in volume (2–7 weeks after injection).
SCID/beige mice bearing DU145-PSMA+ prostate cancer tumour xenografts
SPECT/CT scanning and biodistribution studies: The 99mTc radiotracers (3.9–4.5 MBq, 3 mice per group, containing DPAn-PSMAt = 3.0 µg or DPMEP-PSMAt = 3.5 µg) were administered via tail vein injection under isoflurane anaesthesia. […]
in helical scanning mode). At 2 h post-injection, the animals were euthanized by cervical dislocation, organs/tissues harvested and weighed, and radioactivity counted using a gamma […]
ii. […] After scanning, the organs/tissues were harvested, weighed and radioactivity counted […]
Urine was collected and directly analysed by reverse-phase radio-HPLC (method 2). Data were analysed in GraphPad Prism 9 (version 9.1.1) and expressed as mean ± standard deviation (SD). […]

`COCCOc1ccc(P(/C(C(=O)O)=C(/C(=O)NCCOCCOCCOCCOCCC(=O)NCCCC[C@H](NC(=O)N[C@@H](CCC(=O)O)C(=O)O)C(=O)O)P(c2ccc(OCCOC)cc2)c2ccc(OCCOC)cc2)c2ccc(OCCOC)cc2)cc1` [[^99mTcO2(DP^MEP-PSMAt)2]^+, metal not drawn]: the tissue uptake at 2 h is, setting by setting: (Kidney) 46.4 ± 23.2 %ID/g; (Liver) 7.38 ± 3.98 %ID/g.
On to `COc1ccc(P(/C(C(=O)O)=C(/C(=O)NCCOCCOCCOCCOCCC(=O)NCCCC[C@H](NC(=O)N[C@@H](CCC(=O)O)C(=O)O)C(=O)O)P(c2ccc(OC)cc2)c2ccc(OC)cc2)c2ccc(OC)cc2)cc1` [[^99mTcO2(DP^An-PSMAt)2]^+, metal not drawn], for which the tissue uptake at 2 h by setting is: (Kidney) 87.6 ± 13.3 %ID/g; (Liver) 0.9 ± 0.15 %ID/g.
